# Measured values reported in the supplement of paper PMC10724198.
# ± gives the standard deviation of the averaged measurements.
# Key:
# Saccharomyces cerevisiae [1] = assay: protein stability index of tFT-peptide fusion (C-terminal peptide) (PSI (0-1 scale)); higher = more stable (slower turnover); settings: genetic background: wild type; temperature: 30 C
# Saccharomyces cerevisiae [2] = assay: as above
# Procedure: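 MPS profiling in S. cerevisiae of the tFT-X12 degron library: putative degron peptides plus stable controls, 12 aa, fused to the C-terminus of a sfGFP-mCherry timer. Cells are FACS-sorted into 8 mCherry/sfGFP bins and deep-sequenced. PSI runs from 0 (unstable) to 1 (stable). Backgrounds are wild type, das1Δ and doa10Δ at 30 °C, and wild type, das1Δ, cdc34-1 and cdc53-1 at 37 °C; 2-3 technical replicates each.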
# [3] = genetic background: cdc34-1, temperature: 37 C
# [4] = genetic background: cdc53-1, temperature: 37 C
# [5] = genetic background: das1 deletion, temperature: 30 C
# [6] = genetic background: das1 deletion, temperature: 37 C
# [7] = genetic background: doa10 deletion, temperature: 30 C
# [8] = genetic background: wild type, temperature: 30 C
# [9] = genetic background: wild type, temperature: 37 C
# 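Also: PSI is a weighted mean of sequencing reads over stability bins, variants kept only with over 10 reads, mCherry proximal and sfGFP distal, peptide attached via GGGS linker.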
Sequence,protein stability index (Saccharomyces cerevisiae [1]),protein stability index (Saccharomyces cerevisiae [2]; [3]),protein stability index (Saccharomyces cerevisiae [2]; [4]),protein stability index (Saccharomyces cerevisiae [2]; [5]),protein stability index (Saccharomyces cerevisiae [2]; [6]),protein stability index (Saccharomyces cerevisiae [2]; [7]),protein stability index (Saccharomyces cerevisiae [2]; [8]),protein stability index (Saccharomyces cerevisiae [2]; [9])
KIIKERIRRIKI,0.243 ± 0.032,0.653 ± 0.013,0.632 ± 0.1,0.591 ± 0.032,0.71254 ± 0.0005,0.153 ± 0.0034,0.181 ± 0.049,0.286 ± 0.076
KIRGYLMPLTLL,0.503 ± 0.037,0.56 ± 0.037,0.6 ± 0.0051,0.557 ± 0.027,0.709 ± 0.014,0.4659 ± 0.0027,0.432 ± 0.0072,0.548 ± 0.028
KKKKNIKIKKQI,0.276 ± 0.054,0.74 ± 0.17,–,0.646 ± 0.034,0.711 ± 0.084,0.184 ± 0.025,0.215 ± 0.023,0.336 ± 0.12
KLKTSHILIKQT,0.3668 ± 0.0036,0.665 ± 0.059,0.729 ± 0.0099,0.606 ± 0.029,0.716 ± 0.024,0.1562 ± 0.0013,0.223 ± 0.033,0.452 ± 0.011
KLSLRYLLVSLI,0.188 ± 0.049,0.513 ± 0.013,0.602 ± 0.045,0.456 ± 0.018,0.606 ± 0.011,0.101 ± 0.0044,0.115 ± 0.025,0.153 ± 0.012
KMIVWKESIKRE,0.535 ± 0.15,0.689 ± 0.065,0.7388 ± 0.001,0.633 ± 0.029,0.723 ± 0.015,0.63 ± 0.014,0.667 ± 0.069,0.693 ± 0.022
KNGNVEILIKCT,0.4881 ± 0.0027,0.625 ± 0.081,0.6278 ± 0.0034,0.485 ± 0.018,0.631 ± 0.0084,0.377 ± 0.022,0.425 ± 0.034,0.58 ± 0.018
KRNLLYNIIVWI,0.299 ± 0.046,0.404 ± 0.024,0.476 ± 0.051,0.357 ± 0.025,0.524 ± 0.021,0.171 ± 0.0049,0.179 ± 0.016,0.288 ± 0.0061
KTSVLLCVSTSF,0.441 ± 0.019,0.633 ± 0.0073,0.645 ± 0.021,0.427 ± 0.018,0.628 ± 0.015,0.442 ± 0.046,0.443 ± 0.016,0.628 ± 0.015
LAINVRRELLFF,0.235 ± 0.043,0.613 ± 0.0093,0.723 ± 0.021,0.643 ± 0.029,0.7665 ± 0.007,0.134 ± 0.001,0.148 ± 0.032,0.235 ± 0.007
LARRASCFWVRC,0.452 ± 0.0072,0.671 ± 0.015,0.721 ± 0.011,0.633 ± 0.026,0.71798 ± 0.00063,0.251 ± 0.019,0.303 ± 0.017,0.559 ± 0.011
LAVVCIHAVSSF,0.418 ± 0.077,0.51 ± 0.042,0.538 ± 0.069,0.352 ± 0.018,0.533 ± 0.0038,0.333 ± 0.02,0.373 ± 0.042,0.518 ± 0.038
LCAFLKLFILII,0.239 ± 0.016,0.0906 ± 0.018,0.141 ± 0.076,0.181 ± 0.051,0.325 ± 0.017,0.235 ± 0.027,0.141 ± 0.045,0.23 ± 0.034
LCARVCITFNIV,0.457 ± 0.016,0.517 ± 0.033,0.578 ± 0.054,0.458 ± 0.013,0.4975 ± 0.0038,0.4011 ± 0.004,0.438 ± 0.035,0.481 ± 0.014
LCWLVHFFLWVS,0.288 ± 0.018,0.35 ± 0.081,0.431 ± 0.0079,0.312 ± 0.024,0.442 ± 0.023,0.253 ± 0.013,0.238 ± 0.017,0.393 ± 0.0092
LESYGLRDSTSG,0.621 ± 0.27,0.641 ± 0.05,0.651 ± 0.032,0.638 ± 0.099,0.741 ± 0.042,0.65 ± 0.0099,0.681 ± 0.044,0.69 ± 0.018
LFCVCFYGRIFL,0.423 ± 0.0066,0.443 ± 0.017,0.556 ± 0.038,0.335 ± 0.028,0.526 ± 0.018,0.328 ± 0.018,0.334 ± 0.022,0.5 ± 0.011
LFFCYRVFLLVF,0.185 ± 0.019,0.132 ± 0.01,0.152 ± 0.0027,0.199 ± 0.023,0.243 ± 0.006,0.121 ± 0.016,0.106 ± 0.026,0.1719 ± 0.00093
LFFGFFLIYFLG,0.353 ± 0.044,0.428 ± 0.048,0.4839 ± 0.0013,0.384 ± 0.034,0.495 ± 0.0074,0.266 ± 0.014,0.278 ± 0.018,0.424 ± 0.032
LFFVVFFLLFLL,0.411 ± 0.025,0.402 ± 0.0091,0.446 ± 0.028,0.36 ± 0.026,0.477 ± 0.029,0.389 ± 0.0099,0.337 ± 0.023,0.453 ± 0.026
LFFWFMYLRRLI,0.172 ± 0.033,0.252 ± 0.019,0.238 ± 0.0044,0.403 ± 0.041,0.524 ± 0.11,0.22 ± 0.0085,0.151 ± 0.01,0.164 ± 0.0084
LFHSFFLYCLMS,0.482 ± 0.015,0.56 ± 0.017,0.5796 ± 0.0031,0.616 ± 0.042,0.662 ± 0.04,0.5838 ± 0.0054,0.541 ± 0.022,0.6 ± 0.045
LFIFYCFFFLVR,0.352 ± 0.051,0.27 ± 0.059,0.379 ± 0.087,0.318 ± 0.043,0.395 ± 0.0053,0.359 ± 0.029,0.294 ± 0.0066,0.3824 ± 0.002
LFLEVCFFRLYF,0.465 ± 0.032,0.511 ± 0.055,0.555 ± 0.037,0.447 ± 0.032,0.54 ± 0.011,0.46 ± 0.02,0.453 ± 0.032,0.5086 ± 0.0018
LFLLFLCLSSLF,0.435 ± 0.021,0.561 ± 0.0098,0.584 ± 0.012,0.487 ± 0.02,0.591 ± 0.032,0.448 ± 0.016,0.436 ± 0.035,0.5205 ± 0.0021
LFLLSVNLLLGY,0.237 ± 0.065,0.0581 ± 0.025,0.0949 ± 0.028,0.138 ± 0.035,0.191 ± 0.035,0.105 ± 0.0095,0.112 ± 0.04,0.163 ± 0.0081
LFLPFLPTLALL,0.231 ± 0.012,0.795 ± 0.029,0.823 ± 0.013,0.686 ± 0.032,0.7901 ± 0.0056,0.598 ± 0.021,0.623 ± 0.022,0.7359 ± 0.0023
LFLYDFIALRCS,0.415 ± 0.038,0.46 ± 0.016,0.55 ± 0.015,0.405 ± 0.025,0.566 ± 0.032,0.2104 ± 0.00034,0.24 ± 0.024,0.413 ± 0.012
LFRGVWYYFLVR,0.507 ± 0.028,0.486 ± 0.041,0.5274 ± 0.0022,0.445 ± 0.021,0.61 ± 0.0087,0.504 ± 0.029,0.438 ± 0.029,0.586 ± 0.019
LFSSFFVFRLLV,0.146 ± 0.011,0.322 ± 0.031,0.432 ± 0.039,0.455 ± 0.028,0.581 ± 0.0041,0.0949 ± 0.016,0.0904 ± 0.029,0.0847 ± 0.0039
